Laboratory results reported in paper PMC8234983, “Unravelling the Complex Denaturant and Thermal-Induced Unfolding Equilibria of Human Phenylalanine Hydroxylase” (International Journal of Molecular Sciences, 2021).

B1: full-length human phenylalanine hydroxylase (PAHt, Met1-Lys452) (enzyme, UniProt P00439 1-452, looked up)
chain: MSTAVLENPGLGRKLSDFGQETSYIEDNCNQNGAISLIFSLKEEVGALAKVLRLFEENDVNLTHIESRPSRLKKDEYEFFTHLDKRSLPALTNIIKILRHDIGATVHELSRDKKKDTVPWFPRTIQELDRFANQILSYGAELDADHPGFKDPVYRARRKQFADIAYNYRHGQPIPRVEYMEEEKKTWGTVFKTLKSLYKTHACYEYNHIFPLLEKYCGFHEDNIPQLEDVSQFLQTCTGFRLRPVAGLLSSRDFLGGLAFRVFHCTQYIRHGSKPMYTPEPDICHELLGHVPLFSDRSFAQFSQEIGLASLGAPDEYIEKLATIYWFTVEFGLCKQGDSIKAYGAGLLSSFGELQYCLSEKPKLLPLELEKTAIQNYTVTEFQPLYYVAESFNDAKEKVRNFAATIPRPFSVRYDPYTQRIEVLDNTQQLKILADSINSEIGILCSALQKIK
notes: human phenylalanine hydroxylase (EC 1.14.16.1), full-length construction, residues Met 1-Lys 452; No Fe(II) was added to the recombinant protein; also called PAHt(1-452); full-length PAH
B2: double truncated human phenylalanine hydroxylase (PAHd, Gly103-Thr427; ΔN1-102/ΔC428-452) (domain or fragment, UniProt P00439 103-427, looked up)
chain: GATVHELSRDKKKDTVPWFPRTIQELDRFANQILSYGAELDADHPGFKDPVYRARRKQFADIAYNYRHGQPIPRVEYMEEEKKTWGTVFKTLKSLYKTHACYEYNHIFPLLEKYCGFHEDNIPQLEDVSQFLQTCTGFRLRPVAGLLSSRDFLGGLAFRVFHCTQYIRHGSKPMYTPEPDICHELLGHVPLFSDRSFAQFSQEIGLASLGAPDEYIEKLATIYWFTVEFGLCKQGDSIKAYGAGLLSSFGELQYCLSEKPKLLPLELEKTAIQNYTVTEFQPLYYVAESFNDAKEKVRNFAATIPRPFSVRYDPYTQRIEVLDNT
notes: lacks most of the regulatory and multimerization domains; essentially the catalytic domain; Residues 103-117 are missing in the 1J8T PDB file; also called PAHd(103-427); truncated PAHd

Assays:
[1] = biological target: the molecule itself; test: AUC; sedimentation velocity, 25 °C, 45,000 rpm, 8 µM subunit, 0 M urea (native conditions); c(s) analysis
[2] = biological target: P00439; test: AUC; sedimentation velocity, 25 °C, 45,000 rpm, 8 µM subunit, incubated overnight in 5.4 M urea; c(s) analysis
[3] = biological target: P00439; test: AUC; sedimentation velocity, 25 °C, 45,000 rpm, 8 µM subunit, incubated overnight in 7.4 M urea; c(s) analysis
[4] = biological target: P00439; test: AUC; sedimentation velocity, 25 °C, 45,000 rpm, 8 µM subunit, 0 M urea (native conditions); c(s) analysis

Protein | stoichiometry N [1] | percent of total protein signal as fast-sedimenting polydisperse species (aggregates) [2] | percent of total signal as aggregates [3] | percent of total signal as aggregates [4]
B1 | 4 | multiple species of fast sedimentation at a broad range of 10.2–27.9 S representing 98% of the total protein signal | The rest of the protein signal at this high urea concentration, 13%, corresponds to aggregates of fast sedimentation | aggregates (6% total)
B2 | 2 | from 9.6 S to 92.4 S and accounting for 98.3% of the total protein signal | The remaining 40% of the signal are species with sedimentation coefficients from 5.4 S to 18.8 S representing aggregates | 
